{"source": "patent US20240117018A1", "assay_in_all_cases": "cell-based or functional assay", "key": {"[1]": {"target": "HIV-1 Env of pseudovirus 6041.v3.c23 (HIV-1)"}, "[2]": {"target": "HIV-1 Env of pseudovirus X2088_c9 (HIV-1)"}, "[3]": {"target": "HIV-1 Env of pseudovirus ZM233M.PB6 (HIV-1)"}, "[4]": {"target": "HIV-1 Env of pseudovirus ZM53M.PB12 (HIV-1)"}, "[5]": {"target": "HIV-1 Env of pseudovirus T250-4 (HIV-1)"}, "[6]": {"target": "HIV-1 Env of pseudovirus ZM214M.PL15 (HIV-1)"}, "[7]": {"target": "HIV-1 Env of pseudovirus CNE17 (HIV-1)"}, "[8]": {"target": "HIV-1 Env of pseudovirus 249M B10 (HIV-1)"}, "[9]": {"target": "HIV-1 Env of pseudovirus Ce2010_F5 (HIV-1)"}, "[10]": {"target": "HIV-1 Env of pseudovirus T278-50 (HIV-1)"}, "[11]": {"target": "HIV-1 Env of pseudovirus CNE53 (HIV-1)"}, "[12]": {"target": "HIV-1 Env of pseudovirus X1193_c1 (HIV-1)"}, "[13]": {"target": "HIV-1 Env of pseudovirus Q259.d2.17 (HIV-1)"}, "[14]": {"target": "HIV-1 Env of pseudovirus WITO4160.33 (HIV-1)"}, "[15]": {"target": "HIV-1 Env of pseudovirus PVO.4 (HIV-1)"}, "[16]": {"target": "HIV-1 Env of pseudovirus CNE8 (HIV-1)"}, "[17]": {"target": "HIV-1 Env of pseudovirus CNE52 (HIV-1)"}, "[18]": {"target": "HIV-1 Env of pseudovirus CAP210.2.00.E8 (HIV-1)"}, "[19]": {"target": "HIV-1 Env of pseudovirus WEAU_d15_410_787 (HIV-1)"}, "[20]": {"target": "HIV-1 Env of pseudovirus ZM109F.PB4 (HIV-1)"}, "[21]": {"target": "HIV-1 Env of pseudovirus TRO.11 (HIV-1)"}, "[22]": {"target": "HIV-1 Env of pseudovirus 0260.v5.c36 (HIV-1)"}, "[23]": {"target": "HIV-1 Env of pseudovirus 191084 B7-19 (HIV-1)"}, "[24]": {"target": "HIV-1 Env of pseudovirus Du172.17 (HIV-1)"}, "[25]": {"target": "HIV-1 Env of pseudovirus Ce2060_G9 (HIV-1)"}, "[26]": {"target": "HIV-1 Env of pseudovirus AC10.0.29 (HIV-1)"}, "[27]": {"target": "HIV-1 Env of pseudovirus HIV-0013095-2.11 (HIV-1)"}, "[28]": {"target": "HIV-1 Env of pseudovirus C1080.c03 (HIV-1)"}, "[29]": {"target": "HIV-1 Env of pseudovirus THRO4156.18 (HIV-1)"}, "[30]": {"target": "HIV-1 Env of pseudovirus ZM247v1(Rev-) (HIV-1)"}, "[31]": {"target": "HIV-1 Env of pseudovirus MS208.A1 (HIV-1)"}, "[32]": {"target": "HIV-1 Env of pseudovirus BJOX009000.02.4 (HIV-1)"}, "[33]": {"target": "HIV-1 Env of pseudovirus ZM135M.PL10a (HIV-1)"}, "[34]": {"target": "HIV-1 Env of pseudovirus QH0692.42 (HIV-1)"}, "[35]": {"target": "HIV-1 Env of pseudovirus Ce1086_B2 (HIV-1)"}, "[36]": {"target": "HIV-1 Env of pseudovirus X1632_S2_B10 (HIV-1)"}}}
{"substance": "PGT145 (antibody)", "values": [{"measurement": "IC50 (Titer in TZM.bl cells)", "setting": "[1]", "result": 0.964, "unit": "µg/mL"}, {"measurement": "IC80 (Titer in TZM.bl cells)", "setting": "[1]", "result": "> 50", "unit": "µg/mL"}, {"measurement": "IC50 (Titer in TZM.bl cells)", "setting": "[2]", "result": "> 50", "unit": "µg/mL"}, {"measurement": "IC80 (Titer in TZM.bl cells)", "setting": "[2]", "result": "> 50", "unit": "µg/mL"}, {"measurement": "neutralization IC50", "setting": "[3]", "result": 0.025, "unit": "µg/mL"}, {"measurement": "neutralization IC80", "setting": "[3]", "result": 0.68, "unit": "µg/mL"}, {"measurement": "neutralization IC50", "setting": "[4]", "result": 0.367, "unit": "µg/mL"}, {"measurement": "neutralization IC80", "setting": "[4]", "result": 11.8, "unit": "µg/mL"}, {"measurement": "neutralization IC50", "setting": "[5]", "result": 0.002, "unit": "µg/mL"}, {"measurement": "neutralization IC80", "setting": "[5]", "result": 0.039, "unit": "µg/mL"}, {"measurement": "neutralization IC50", "setting": "[6]", "result": "> 50", "unit": "µg/mL"}, {"measurement": "neutralization IC80", "setting": "[6]", "result": "> 50", "unit": "µg/mL"}, {"measurement": "neutralization IC50", "setting": "[7]", "result": 0.091, "unit": "µg/mL"}, {"measurement": "neutralization IC80", "setting": "[7]", "result": 1.16, "unit": "µg/mL"}, {"measurement": "neutralization IC50", "setting": "[8]", "result": 0.947, "unit": "µg/mL"}, {"measurement": "neutralization IC80", "setting": "[8]", "result": 41.3, "unit": "µg/mL"}, {"measurement": "neutralization IC50", "setting": "[9]", "result": "> 50", "unit": "µg/mL"}, {"measurement": "neutralization IC80", "setting": "[9]", "result": "> 50", "unit": "µg/mL"}, {"measurement": "IC50 (Titer in TZM.bl cells)", "setting": "[10]", "result": 10.3, "unit": "µg/mL"}, {"measurement": "IC80 (Titer in TZM.bl cells)", "setting": "[10]", "result": "> 50", "unit": "µg/mL"}, {"measurement": "neutralization IC50", "setting": "[11]", "result": 0.006, "unit": "µg/mL"}, {"measurement": "neutralization IC80", "setting": "[11]", "result": 0.084, "unit": "µg/mL"}, {"measurement": "IC50 (Titer in TZM.bl cells)", "setting": "[12]", "result": 0.013, "unit": "µg/mL"}, {"measurement": "IC80 (Titer in TZM.bl cells)", "setting": "[12]", "result": 0.091, "unit": "µg/mL"}, {"measurement": "neutralization IC50", "setting": "[13]", "result": 44.2, "unit": "µg/mL"}, {"measurement": "neutralization IC80", "setting": "[13]", "result": "> 50", "unit": "µg/mL"}, {"measurement": "neutralization IC50", "setting": "[14]", "result": "< 0.001", "unit": "µg/mL"}, {"measurement": "neutralization IC80", "setting": "[14]", "result": 0.001, "unit": "µg/mL"}, {"measurement": "neutralization IC50", "setting": "[15]", "result": 0.192, "unit": "µg/mL"}, {"measurement": "neutralization IC80", "setting": "[15]", "result": 0.87, "unit": "µg/mL"}, {"measurement": "IC50 (Titer in TZM.bl cells)", "setting": "[16]", "result": 0.272, "unit": "µg/mL"}, {"measurement": "IC80 (Titer in TZM.bl cells)", "setting": "[16]", "result": 2.24, "unit": "µg/mL"}, {"measurement": "neutralization IC50", "setting": "[17]", "result": 0.02, "unit": "µg/mL"}, {"measurement": "neutralization IC80", "setting": "[17]", "result": 0.091, "unit": "µg/mL"}, {"measurement": "neutralization IC50", "setting": "[18]", "result": 37.8, "unit": "µg/mL"}, {"measurement": "neutralization IC80", "setting": "[18]", "result": "> 50", "unit": "µg/mL"}, {"measurement": "neutralization IC50", "setting": "[19]", "result": 1.95, "unit": "µg/mL"}, {"measurement": "neutralization IC80", "setting": "[19]", "result": 31.5, "unit": "µg/mL"}, {"measurement": "neutralization IC50", "setting": "[20]", "result": 0.042, "unit": "µg/mL"}, {"measurement": "neutralization IC80", "setting": "[20]", "result": 0.234, "unit": "µg/mL"}, {"measurement": "neutralization IC50", "setting": "[21]", "result": 0.04, "unit": "µg/mL"}, {"measurement": "neutralization IC80", "setting": "[21]", "result": 0.118, "unit": "µg/mL"}, {"measurement": "neutralization IC50", "setting": "[22]", "result": "> 50", "unit": "µg/mL"}, {"measurement": "neutralization IC80", "setting": "[22]", "result": "> 50", "unit": "µg/mL"}, {"measurement": "neutralization IC50", "setting": "[23]", "result": 0.028, "unit": "µg/mL"}, {"measurement": "neutralization IC80", "setting": "[23]", "result": 0.345, "unit": "µg/mL"}, {"measurement": "neutralization IC50", "setting": "[24]", "result": "> 50", "unit": "µg/mL"}, {"measurement": "neutralization IC80", "setting": "[24]", "result": "> 50", "unit": "µg/mL"}, {"measurement": "neutralization IC50", "setting": "[25]", "result": 0.016, "unit": "µg/mL"}, {"measurement": "neutralization IC80", "setting": "[25]", "result": 0.205, "unit": "µg/mL"}, {"measurement": "neutralization IC50", "setting": "[26]", "result": 0.01, "unit": "µg/mL"}, {"measurement": "neutralization IC80", "setting": "[26]", "result": 0.025, "unit": "µg/mL"}, {"measurement": "neutralization IC50", "setting": "[27]", "result": 9.27, "unit": "µg/mL"}, {"measurement": "neutralization IC80", "setting": "[27]", "result": "> 50", "unit": "µg/mL"}, {"measurement": "IC50 (Titer in TZM.bl cells)", "setting": "[28]", "result": 0.024, "unit": "µg/mL"}, {"measurement": "IC80 (Titer in TZM.bl cells)", "setting": "[28]", "result": 0.146, "unit": "µg/mL"}, {"measurement": "neutralization IC50", "setting": "[29]", "result": 0.01, "unit": "µg/mL"}, {"measurement": "neutralization IC80", "setting": "[29]", "result": 0.029, "unit": "µg/mL"}, {"measurement": "neutralization IC50", "setting": "[30]", "result": 7.19, "unit": "µg/mL"}, {"measurement": "neutralization IC80", "setting": "[30]", "result": "> 50", "unit": "µg/mL"}, {"measurement": "neutralization IC50", "setting": "[31]", "result": 0.334, "unit": "µg/mL"}, {"measurement": "neutralization IC80", "setting": "[31]", "result": 18, "unit": "µg/mL"}, {"measurement": "IC50 (Titer in TZM.bl cells)", "setting": "[32]", "result": 0.117, "unit": "µg/mL"}, {"measurement": "IC80 (Titer in TZM.bl cells)", "setting": "[32]", "result": 0.745, "unit": "µg/mL"}, {"measurement": "neutralization IC50", "setting": "[33]", "result": "> 50", "unit": "µg/mL"}, {"measurement": "neutralization IC80", "setting": "[33]", "result": "> 50", "unit": "µg/mL"}, {"measurement": "neutralization IC50", "setting": "[34]", "result": "> 50", "unit": "µg/mL"}, {"measurement": "neutralization IC80", "setting": "[34]", "result": "> 50", "unit": "µg/mL"}, {"measurement": "neutralization IC50", "setting": "[35]", "result": "> 50", "unit": "µg/mL"}, {"measurement": "neutralization IC80", "setting": "[35]", "result": "> 50", "unit": "µg/mL"}, {"measurement": "IC50 (Titer in TZM.bl cells)", "setting": "[36]", "result": 0.012, "unit": "µg/mL"}, {"measurement": "IC80 (Titer in TZM.bl cells)", "setting": "[36]", "result": 2.03, "unit": "µg/mL"}]}
